Source: the supplement of paper PMC6755084

B1: minF1; the commonest letter at each place (parent)
chain: GAGACCGCAACTGAAAAGTTGTTATCAGAAATGGATGGGTTGAATTTCTGCACGTAGAAGCAAAAGGC
B2: minF1; a variant is named by its letters at N, in order (parent)
chain: GAGACCGCAACTGAAAAGTTGTTANNNNAANGNNNGGTTGAATTTCTGCACGTAGAAGCAAAAGGC

Variants of: B1
Assay: fraction ligated after 30 min (ligated reads / total reads); higher = more ligase activity
Conditions: with F1*subA RNA substrate (template-directed ligation), 42 °C
In short: (§1)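 Fraction ligated for every variant was calculated as the share of total reads that came from ligated RNA. Minimized ligase ribozyme variants were made from oligo-pool templates by PCR amplification, T7 transcription and gel purification. After gel separation of ligated and unligated RNAs, reverse transcription with barcoded primers and MiSeq sequencing followed. Only core bases at quality ≥30 passed filtering.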

Compared with A43G A44G, A43G A44C is higher in fraction ligated: 0.00367 for the first, 0.00393 for the second.

Going from A43G A44T to G42C A43G, the fraction ligated rises from 0.00618 to 0.0762.

First: G42C A43T
Second: G42C A43C
The fraction ligated of the first is lower: 0.00312 for the first, 0.00394 for the second.

First: G42C A43T A44T
Second: G42C A43T A44C
The fraction ligated of the first is higher: 0.00299 for the first, 0.000795 for the second.

First: G42C A43T A44G
Second: G42T A43C A44C
The fraction ligated of the first is higher: 0.0022 for the first, 0.00131 for the second.

Compared with G42T A43C A44G, G42T A43C A44T is higher in fraction ligated: 0.00164 for the first, 0.0038 for the second.

Compared with A44T, A44C is lower in fraction ligated: 0.794 for the first, 0.646 for the second.

First: A44G
Second: unchanged
The fraction ligated of the first is higher: 0.79 for the first, 0.761 for the second.

Compared with G37T G42C, G37T G42A is higher in fraction ligated: 0.00492 for the first, 0.00778 for the second.

Compared with G37T G42T, G42A A43T A44T is lower in fraction ligated: 0.00146 for the first, 0.00133 for the second.

Compared with G42A A43T A44G, G42A A43T A44C is higher in fraction ligated: 0.000353 for the first, 0.00312 for the second.

Going from A43T to A43C, the fraction ligated falls from 0.13 to 0.115.

First: A43G
Second: G42T A43G
The fraction ligated of the first is lower: 0.0856 for the first, 0.115 for the second.

Compared with G42T A43C, G42T A43T is higher in fraction ligated: 0.000975 for the first, 0.00326 for the second.

Compared with G42C A43C A44C, G42C A43C A44T is lower in fraction ligated: 0.00224 for the first, 0.00191 for the second.

Compared with G42C A43C A44G, G42A A44C is higher in fraction ligated: 0.00342 for the first, 0.024 for the second.

Going from G42A A44G to G42A A44T, the fraction ligated rises from 0.0717 to 0.0746.

First: T41A
Second: T41G
The fraction ligated of the first is higher: 0.689 for the first, 0.146 for the second.

Going from T41C to A43T A44G, the fraction ligated falls from 0.86 to 0.00469.

First: A43T A44C
Second: A43T A44T
The fraction ligated of the first is lower: 0.00191 for the first, 0.00531 for the second.

Going from G42A A43C A44C to G42A A43C A44T, the fraction ligated rises from 0.00102 to 0.00211.

Going from G42A A43C A44G to G42C A44T, the fraction ligated rises from 0.00203 to 0.00542.

Compared with G42C A44G, G42C A44C is lower in fraction ligated: 0.00439 for the first, 0.00284 for the second.

First: G37T
Second: G42T A43G A44C
The fraction ligated of the first is higher: 0.0174 for the first, 0.00145 for the second.

First: G42T A43G A44G
Second: G42T A43G A44T
The fraction ligated of the first is higher: 0.00264 for the first, 0.00254 for the second.

First: G37T A44C
Second: G37T A44T
The fraction ligated of the first is lower: 0.00343 for the first, 0.0093 for the second.

First: G37T A44G
Second: G42T A43T A44G
The fraction ligated of the first is higher: 0.0087 for the first, 0.000847 for the second.

Compared with G42T A43T A44T, G42T A43T A44C is higher in fraction ligated: 0.00186 for the first, 0.00206 for the second.

Going from G42A A43C to G42A A43T, the fraction ligated falls from 0.0101 to 0.00678.

Going from G42A A43G to A43C A44C, the fraction ligated falls from 0.0596 to 0.00194.

First: A43C A44T
Second: A43C A44G
The fraction ligated of the first is lower: 0.00456 for the first, 0.00638 for the second.

Compared with G37C A44G, G37C A44T is higher in fraction ligated: 0.00293 for the first, 0.00681 for the second.

Compared with G42A, G42T is lower in fraction ligated: 0.364 for the first, 0.117 for the second.

Going from G42C to G37C G42T, the fraction ligated falls from 0.0127 to 0.00137.

Going from G37C G42C to G37C G42A, the fraction ligated falls from 0.00331 to 0.00281.

Going from G42A A43G A44G to G42A A43G A44C, the fraction ligated falls from 0.00352 to 0.00251.

Going from G42A A43G A44T to G37T A43G, the fraction ligated rises from 0.00363 to 0.00602.

First: G37T A43T
Second: G37T A43C
The fraction ligated of the first is higher: 0.00731 for the first, 0.00313 for the second.

Going from G42C A43G A44G to G42C A43G A44T, the fraction ligated falls from 0.00392 to 0.00288.

First: G42C A43G A44C
Second: G42T A44C
The fraction ligated of the first is lower: 0.000834 for the first, 0.00596 for the second.

Going from G42T A44G to G42T A44T, the fraction ligated rises from 0.0143 to 0.0246.

Variants of: B2
Assay: as above
Conditions: with F1*subA RNA substrate (template-directed ligation), 42 °C
In short: as §1

Going from TCAGTGAT to TCAGTGAG, the fraction ligated falls from 0.0235 to 0.00523.

Compared with TCAATATG, TCAGAGGT G32T T38G G40T is lower in fraction ligated: 0.00928 for the first, 0.00529 for the second.

Compared with TCAGTATG, TCAGAGGA G32T G36T T38G G40T A41G is higher in fraction ligated: 0.011 for the first, 0.0306 for the second.

Going from CAGATATG T23A A24T to TCGATGAT T38G G40T, the fraction ligated rises from 0.00616 to 0.0543.

Going from TCAAGATG to TCAGAGAT, the fraction ligated rises from 0.00472 to 0.00503.

Compared with TCAGAGAG, CAGATGAT T23A A24T T38G G40T is higher in fraction ligated: 0.00214 for the first, 0.0102 for the second.

First: TCAGAGGT G32T T38G G40T A41G
Second: CAGATGAT A24T
The fraction ligated of the first is higher: 0.0316 for the first, 0.00819 for the second.

Going from TCAGTGAT T38G G40T A41G to CAGATGTG A24T, the fraction ligated falls from 0.392 to 0.00498.

Going from TCAGAGAG G32T to TCAGAGGA G32T T38G G40T A41G, the fraction ligated falls from 0.011 to 0.00714.

Going from CAGATGAT A24T T38G G40T A41G to CGAAGATG A24T A30T, the fraction ligated rises from 0.0273 to 0.0664.

First: TCAGAGAT G32T T38G G40T A41G
Second: CAGAGATG A24T
The fraction ligated of the first is higher: 0.0724 for the first, 0.00326 for the second.

First: CAGAGATG T23A A24T
Second: TCAATGAT T38G G40T
The fraction ligated of the first is lower: 0.00547 for the first, 0.0188 for the second.

Going from TCGATATG to CAGAGATG T23A A24T A30T, the fraction ligated rises from 0.0107 to 0.0668.

Compared with TAGAGATG, TCAGGATG is higher in fraction ligated: 0.00517 for the first, 0.00705 for the second.

First: TCGAGATG A30T
Second: CAGAGATG A24T A30T
The fraction ligated of the first is higher: 0.205 for the first, 0.0149 for the second.

Compared with TCAGAGTG G32T, TCAGAGGA G32T G36T T38G G40T is higher in fraction ligated: 0.00848 for the first, 0.0174 for the second.

First: TCAGGATG A30T
Second: TAGATGAT
The fraction ligated of the first is higher: 0.163 for the first, 0.00267 for the second.

First: TAGATGAG
Second: AGAAGATG A30T
The fraction ligated of the first is lower: 0.00428 for the first, 0.0065 for the second.

Compared with TCAGAGGA G32T G36T T38G T39G G40T A41T, CAAAGATG T23A A24T A30T is higher in fraction ligated: 0.00781 for the first, 0.0275 for the second.

Going from TAGATGTG to TCAGAATG G32T, the fraction ligated rises from 0.00059 to 0.00623.

First: CAGATATG
Second: CAGATGTG
The fraction ligated of the first is higher: 0.00456 for the first, 0.00446 for the second.

First: TCAGAGAT G32T T38G G40T
Second: CAGATGAT T38G G40T
The fraction ligated of the first is higher: 0.00839 for the first, 0.00757 for the second.

Going from TAGATGAT T38G G40T A41G to TCAGTGAT T38G G40T, the fraction ligated rises from 0.025 to 0.0275.

First: CAGATGTG T23A A24T
Second: TCAGAGAT G32T
The fraction ligated of the first is lower: 0.00275 for the first, 0.00472 for the second.

Going from CAGATGAG T23A A24T to TCGATGAT T38G G40T A41G, the fraction ligated rises from 0.00151 to 0.576.

Going from CGAAGATG A30T to TCGAGATG, the fraction ligated falls from 0.0292 to 0.00545.

First: CAGATGAT T23A A24T T38G G40T A41G
Second: CAGATGAT T23A A24T
The fraction ligated of the first is higher: 0.0927 for the first, 0.0249 for the second.

Going from TCAATGAT T38G G40T A41G to TCAGAGGG G32T, the fraction ligated falls from 0.302 to 0.00695.

Compared with CAGATATG A24T, CAGATGAT T38G G40T A41G is higher in fraction ligated: 0.00546 for the first, 0.0186 for the second.

Going from AGAAGATG T23A A24C A30T to TCAGAGGA G32T G36T T38G T39G G40T A41T A42T, the fraction ligated falls from 0.00911 to 0.00119.

Compared with TCAGAGGA G32T G36T T38G T39G G40T A41T A42C, TCAGAGGA G32T G36T T38G T39G G40T A41T A42G is lower in fraction ligated: 0.00198 for the first, 0.00154 for the second.

Compared with TCGATGTG, TAGAGATG A30T is higher in fraction ligated: 0.0076 for the first, 0.0449 for the second.

Compared with CAAAGATG A30T, TCAGTGTG is lower in fraction ligated: 0.00974 for the first, 0.00427 for the second.

Compared with TCAGAGAT T38G G40T A41G, TCAGAGGA G32T is lower in fraction ligated: 0.0517 for the first, 0.0037 for the second.

First: CAGATGAG A24T
Second: TGAAGATG A30T
The fraction ligated of the first is lower: 0.00352 for the first, 0.054 for the second.

Compared with TCAAGATG A30T, AGAAGATG A24T A30T is lower in fraction ligated: 0.111 for the first, 0.00936 for the second.

Going from TCAGAGGT G32T to TCAGAGAT T38G G40T, the fraction ligated rises from 0.00299 to 0.004.

First: TAGATATG
Second: TCAGAATG
The fraction ligated of the first is lower: 0.00408 for the first, 0.00903 for the second.

Going from CAGATGAT A24T T38G G40T to TAGATGAT T38G G40T, the fraction ligated falls from 0.00536 to 0.00516.

Compared with TCAGAGGA G32T T38G G40T, TCAATGAT is higher in fraction ligated: 0.00434 for the first, 0.0159 for the second.

Going from TCAATGAG to CGAAGATG T23A A24T A30T, the fraction ligated rises from 0.00836 to 0.0868.

Going from CAAAGATG A24T A30T to TAAAGATG A30T, the fraction ligated rises from 0.0148 to 0.021.

With AGAAGATG A24C A30T the fraction ligated was 0.0111.
